{"source": "patent US20050260733", "key": {"[1]": {"molecular_target": "undigested bovine aggrecan, P13608", "sequence (P13608 20-2364)": "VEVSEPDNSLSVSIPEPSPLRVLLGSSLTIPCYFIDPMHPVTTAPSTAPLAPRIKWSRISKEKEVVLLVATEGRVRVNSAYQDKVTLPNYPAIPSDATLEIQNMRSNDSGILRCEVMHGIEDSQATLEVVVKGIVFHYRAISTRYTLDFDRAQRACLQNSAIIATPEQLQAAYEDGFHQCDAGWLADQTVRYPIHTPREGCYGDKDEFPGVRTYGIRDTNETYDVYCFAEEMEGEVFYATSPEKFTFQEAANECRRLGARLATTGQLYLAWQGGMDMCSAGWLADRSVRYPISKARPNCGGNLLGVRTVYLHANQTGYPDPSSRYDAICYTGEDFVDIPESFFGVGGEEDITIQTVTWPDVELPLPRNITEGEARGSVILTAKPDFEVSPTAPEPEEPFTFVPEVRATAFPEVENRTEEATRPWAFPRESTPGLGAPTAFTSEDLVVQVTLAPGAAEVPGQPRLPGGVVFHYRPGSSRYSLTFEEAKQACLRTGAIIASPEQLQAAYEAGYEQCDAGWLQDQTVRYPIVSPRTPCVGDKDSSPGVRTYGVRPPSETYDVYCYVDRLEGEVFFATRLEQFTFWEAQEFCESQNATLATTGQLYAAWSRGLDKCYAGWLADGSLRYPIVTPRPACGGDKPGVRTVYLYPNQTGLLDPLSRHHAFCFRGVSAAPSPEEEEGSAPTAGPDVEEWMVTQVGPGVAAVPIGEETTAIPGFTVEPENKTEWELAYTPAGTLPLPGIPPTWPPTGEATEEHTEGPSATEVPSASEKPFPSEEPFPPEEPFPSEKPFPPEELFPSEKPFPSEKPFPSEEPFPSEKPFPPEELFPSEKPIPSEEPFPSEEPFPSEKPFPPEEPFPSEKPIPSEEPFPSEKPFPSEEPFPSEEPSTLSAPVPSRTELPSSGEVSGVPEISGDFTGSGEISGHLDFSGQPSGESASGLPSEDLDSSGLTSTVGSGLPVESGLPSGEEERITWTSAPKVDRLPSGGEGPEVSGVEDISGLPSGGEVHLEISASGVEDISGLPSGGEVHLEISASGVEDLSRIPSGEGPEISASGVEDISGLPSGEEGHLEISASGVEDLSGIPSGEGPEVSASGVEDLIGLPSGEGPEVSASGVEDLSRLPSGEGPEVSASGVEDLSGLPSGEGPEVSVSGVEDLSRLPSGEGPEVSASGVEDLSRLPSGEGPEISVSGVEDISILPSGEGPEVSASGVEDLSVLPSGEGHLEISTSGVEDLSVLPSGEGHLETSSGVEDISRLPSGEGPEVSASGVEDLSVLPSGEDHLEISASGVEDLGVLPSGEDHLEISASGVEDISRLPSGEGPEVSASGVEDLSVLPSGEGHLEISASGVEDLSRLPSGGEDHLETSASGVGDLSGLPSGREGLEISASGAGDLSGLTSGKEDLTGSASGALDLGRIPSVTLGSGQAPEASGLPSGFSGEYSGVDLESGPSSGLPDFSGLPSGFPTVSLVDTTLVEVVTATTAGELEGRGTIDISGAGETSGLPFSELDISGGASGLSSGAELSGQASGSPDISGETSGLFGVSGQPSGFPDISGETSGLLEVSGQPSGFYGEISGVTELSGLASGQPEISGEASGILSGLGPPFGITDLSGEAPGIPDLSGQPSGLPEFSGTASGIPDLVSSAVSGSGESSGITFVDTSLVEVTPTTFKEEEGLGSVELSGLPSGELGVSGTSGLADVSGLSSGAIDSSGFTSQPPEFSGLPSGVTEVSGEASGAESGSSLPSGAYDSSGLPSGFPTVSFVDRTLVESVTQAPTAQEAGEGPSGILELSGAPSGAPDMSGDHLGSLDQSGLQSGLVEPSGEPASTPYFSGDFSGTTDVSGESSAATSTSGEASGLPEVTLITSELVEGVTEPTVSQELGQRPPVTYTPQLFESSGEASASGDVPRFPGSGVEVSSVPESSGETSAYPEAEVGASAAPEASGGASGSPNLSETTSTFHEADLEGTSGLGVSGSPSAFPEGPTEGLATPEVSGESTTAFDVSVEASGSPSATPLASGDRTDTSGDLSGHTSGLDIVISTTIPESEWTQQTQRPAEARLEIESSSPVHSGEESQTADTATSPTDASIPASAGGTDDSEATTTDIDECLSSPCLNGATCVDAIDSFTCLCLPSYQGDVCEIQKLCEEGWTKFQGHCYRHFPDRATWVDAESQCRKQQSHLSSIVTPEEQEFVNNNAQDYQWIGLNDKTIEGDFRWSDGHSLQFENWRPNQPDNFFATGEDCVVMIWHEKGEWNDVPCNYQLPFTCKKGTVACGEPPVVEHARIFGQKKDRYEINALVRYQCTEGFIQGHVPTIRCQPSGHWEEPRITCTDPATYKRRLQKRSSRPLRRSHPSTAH"}, "α-2 macroglobulin": {"molecular_target": "T1, α-2 macroglobulin", "T1 sequence (P01023 24-1474, species assumed, looked up)": "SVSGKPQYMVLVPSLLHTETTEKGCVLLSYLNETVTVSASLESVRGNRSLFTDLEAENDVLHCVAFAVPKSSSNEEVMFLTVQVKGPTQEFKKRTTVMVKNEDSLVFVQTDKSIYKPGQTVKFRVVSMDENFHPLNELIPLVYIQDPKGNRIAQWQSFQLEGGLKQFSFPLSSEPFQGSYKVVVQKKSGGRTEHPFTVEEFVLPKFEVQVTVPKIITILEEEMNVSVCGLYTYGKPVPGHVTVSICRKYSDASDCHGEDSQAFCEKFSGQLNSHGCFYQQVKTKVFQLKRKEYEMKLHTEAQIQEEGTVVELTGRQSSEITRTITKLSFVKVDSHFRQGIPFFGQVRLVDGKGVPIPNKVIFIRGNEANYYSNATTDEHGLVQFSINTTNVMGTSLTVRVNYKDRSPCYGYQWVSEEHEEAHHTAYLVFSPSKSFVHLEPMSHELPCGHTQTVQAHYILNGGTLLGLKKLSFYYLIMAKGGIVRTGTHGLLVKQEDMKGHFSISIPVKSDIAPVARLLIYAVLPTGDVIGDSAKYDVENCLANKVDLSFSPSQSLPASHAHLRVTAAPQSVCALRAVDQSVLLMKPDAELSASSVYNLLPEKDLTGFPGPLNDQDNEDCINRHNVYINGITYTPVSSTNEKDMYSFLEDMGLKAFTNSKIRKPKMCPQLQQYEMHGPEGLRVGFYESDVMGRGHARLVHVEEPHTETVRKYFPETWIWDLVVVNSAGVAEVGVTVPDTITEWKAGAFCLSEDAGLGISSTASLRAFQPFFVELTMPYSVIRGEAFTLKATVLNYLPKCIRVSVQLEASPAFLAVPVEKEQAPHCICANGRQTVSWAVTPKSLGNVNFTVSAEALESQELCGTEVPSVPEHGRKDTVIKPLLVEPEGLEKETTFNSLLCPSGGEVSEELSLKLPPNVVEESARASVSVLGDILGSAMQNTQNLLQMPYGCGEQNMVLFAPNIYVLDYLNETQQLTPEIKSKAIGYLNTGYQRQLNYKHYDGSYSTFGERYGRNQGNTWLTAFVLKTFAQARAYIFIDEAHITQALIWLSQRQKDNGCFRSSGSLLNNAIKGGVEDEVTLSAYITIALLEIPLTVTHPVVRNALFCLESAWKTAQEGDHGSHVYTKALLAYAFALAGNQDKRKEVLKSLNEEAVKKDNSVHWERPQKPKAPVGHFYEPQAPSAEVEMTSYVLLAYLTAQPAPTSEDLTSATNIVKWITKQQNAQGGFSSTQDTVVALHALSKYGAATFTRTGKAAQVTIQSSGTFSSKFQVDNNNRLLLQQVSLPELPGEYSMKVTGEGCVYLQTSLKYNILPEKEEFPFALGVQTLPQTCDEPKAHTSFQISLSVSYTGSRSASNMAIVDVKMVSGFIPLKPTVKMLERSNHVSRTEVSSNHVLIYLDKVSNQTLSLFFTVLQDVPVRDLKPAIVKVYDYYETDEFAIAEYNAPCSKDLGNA"}}, "data": [{"protein": "recombinant human ADAMTS-8 with C-terminal Strep-tag (protein) RFVSEARFVETLLVADASMAAFYGADLQNHILTLMSVAARIYKHPSIKNSINLMVVKVLIVEDEKWGPEVSDNGGLTLRNFCNWQRRFNQPSDRHPEHYDTAILLTRQNFCGQEGLCDTLGVADIGTICDPNKSCSVIEDEGLQAAHTLAHELGHVLSMPHDDSKPCTRLFGPMGKHHVMAPLFVHLNQTLPWSPCSAMYLTELLDGGHGDCLLDAPRAALPLPTGLPGRMALYQLDQQCRQIFGPDFRHCPNTSAQDVCAQLWCHTDGAEPLCHTKNGSLPWADGTPCGPGHLCSEGSCLPEEEVERPKPVADGGWAPWGPWGECSRTCGGGVQFSHRECKDPEPQNGGRYCLGRRAKYQSCHTEECPPDGKSFREQQCEKYNAYNYTDMDGNLLQWVPKYAGVSPRDRCKLFCRARGRSEFKVFEAKVIDGTLCGPETLAICVRGQCVKAGCDHVVDSPRKLDKCGVCGGKGNSCRKVSGSLTPTNYGYNDIVTIPAGATNIDVKQRSHPGVQNDGNYLALKTADGQYLLNGNLAISAIEQDILVKGTILKYSGSIATLERLQSFRPLPEPLTVQLLTVPGEVFPPKVKYTFFVPNDVDFSMQSSKERATTNIIQPLLHAQWVLGDWSECSSTCGAGWQRRTVECRDPSGQASATCNKALKPEDAKPCESQLCPLGSGSAWSHPQFEK", "values": [{"measurement": "aggrecan cleavage seen by neoepitope Western blot", "setting": "[1]", "value": "MAb BC-3 immunoreactive bands increased in intensity with increasing amounts of ADAMTS-8 protein relative to aggrecan substrate"}, {"measurement": "lowest enzyme:substrate ratio at which cleavage is detected by Western blot", "setting": "[1]", "value": "cleavage of bovine articular cartilage aggrecan by ADAMTS-8 at an enzyme:substrate ratio of 1:0.5 using the BC-3 neoepitope MAb ... can be readily detected"}]}, {"protein": "recombinant C-terminally truncated ADAMTS-8 (protein) MLPAPAAPRWPPLLLLLLLLLLPLARGAPARPAAGGQASELVVPTRLPGSAGELALHLSAFGKGFVLRLAPDDSFLAPEFKIERLGGSGRATGGERGLRGCFFSGTVNGEPESLAAVSLCRGLSGSFLLDGEEFTIQPQGAGGSLAQPHRLQRWGPAGARPLPRGPEWEVETGEGQRQERGDHQEDSEEESQEEEAEGASEPPPPLGATSRTKRFVSEARFVETLLVADASMAAFYGADLQNHILTLMSVAARIYKHPSIKNSINLMVVKVLIVEDEKWGPEVSDNGGLTLRNFCNWQRRFNQPSDRHPEHYDTAILLTRQNFCGQEGLCDTLGVADIGTICDPNKSCSVIEDEGLQAAHTLAHELGHVLSMPHDDSKPCTRLFGPMGKHHVMAPLFVHLNQTLPWSPCSAMYLTELLDGGHGDCLLDAPRAALPLPTGLPGRMALYQLDQQCRQIFGPDFRHCPNTSAQDVCAQLWCHTDGAEPLCHTKNGSLPWADGTPCGPGHLCSEGSCLPEEEVERPKPVADGGWAPWGPWGECSRTCGGGVQFSHRECKDPEPQNGGRYCLGRRAKYQSCHTEECPPDGKSFREQQCEKYNAYNYTDMDGNLLQWVPKYAGVSPRDRCKLFCRARGRSEFKVFEAKVIDGTLCGPETLAICVRGQCVKAGCDHVVDSPRKLDKCGVCGGKGNSCRKVSGSLTPTNYGYNDIVTIPAGATNIDVKQRSHPGVQNDGNYLALKTADGQYLLNGNLAISAIEQDILVKGTILKYSGSIATLERLQSFRPLPEPLTVQLLTVPGEVFPPKVKYTFFVPNDVDFSMQSSKERATTNIIQPLLHAQWVLGDWSECSSTCGAGWQRRTVECRDPSGQASATCNKALKPEDAKPCESQLCPL", "values": [{"measurement": "aggrecan cleavage by AGG-C1 Western blotting", "setting": "[1]", "value": "it seemed to be no more active than full-length recombinant ADAMTS-8 on aggrecan substrate as judged by AGG-C1 Western blotting"}, {"measurement": "α2-macroglobulin assay", "setting": "α-2 macroglobulin", "value": "the purified protein was active as judged by α2-macroglobulin assay"}]}]}
